Our source for the Kd values is US20040096894A1 (published 2004).

By Kd is commonly meant a measure of binding affinity in units of concentration. A low value points to tighter binding.

T1: PSGL-1 19ek peptide SGP-2 (disulfated form of SGP-3) (human, UniProt Q14242 42-60, two tyrosine sulfates (positions not resolved; every permutation present); SLe^X-containing core2 O-glycan at Thr-16; biotinylated at Lys residues)
T1 construct: domain: N-terminal 19 amino acids of PSGL-1; Same polypeptide as SGP-3, less modified; also called disulfated species
T1 sequence (Q14242 42-60, looked up): QATEYEYLDYDFLPETEPP

T2: PSGL-1 19ek peptide sulfopeptide-1 (SP-1) (human, UniProt Q14242 42-60, tyrosine sulfated; no carbohydrate; biotinylated at Lys residues)
T2 construct: domain: N-terminal 19 amino acids of PSGL-1; Form of SGP-3 containing no carbohydrate
T2 sequence (Q14242 42-60, looked up): QATEYEYLDYDFLPETEPP

T3: PSGL-1 19ek peptide glycopeptide-1 (GP-1) (human, UniProt Q14242 42-60, no tyrosine sulfates; SLe^X-containing core2 O-glycan at Thr-16; biotinylated at Lys residues)
T3 construct: domain: N-terminal 19 amino acids of PSGL-1; Form of SGP-3 containing no tyrosine sulfates
T3 sequence (Q14242 42-60, looked up): QATEYEYLDYDFLPETEPP

T4: PSGL-1 19ek peptide SGP-1 (monosulfated form of SGP-3) (human, UniProt Q14242 42-60, one tyrosine sulfate (position not resolved; every permutation present); SLe^X-containing core2 O-glycan at Thr-16; biotinylated at Lys residues)
T4 construct: domain: N-terminal 19 amino acids of PSGL-1; Same polypeptide as SGP-3, less modified; also called monosulfated species
T4 sequence (Q14242 42-60, looked up): QATEYEYLDYDFLPETEPP

B1: P-selectin lectin and EGF-like (LE) domains, monomeric (receptor, human, UniProt P16109 42-198, looked up)
chain: WTYHYSTKAYSWNISRKYCQNRYTDLVAIQNKNEIDYLNKVLPYYSSYYWIGIRKNNKTWTWVGTKKALTNEAENWADNEPNNKRNNEDCVEIYIKSPSAPGKWNDEHCLKKKHALCYTASCQDMSCSKQGECLETIGNYTCSCYPGFYGPECEYVR
modifications: three N-linked glycans when expressed in CHO cells; glycosylated form used for BIAcore, N-glycanase-deglycosylated form used for crystals
notes: domain: lectin and EGF-like (LE) domains; also called P-LE; P-selectin lectin/EGF domains
B2: PSGL-1 19ek peptide sulfoglycopeptide-3 (SGP-3) (peptide)
chain: [pGlu]ATE[sY]E[sY]LD[sY]DFLPET(SLeX core2 O‑glycan)EPP
modifications: also: biotinylated at Lys residues when immobilized, site not placed

Assay [1] addresses T1, PSGL-1 19ek peptide SGP-2 (disulfated …). The assay can be described thus: BIAcore SPR, equilibrium; solution-phase P-LE over immobilized biotinylated SGP-2. On the procedure:
(§1) Second row, left-to-right: SGP-1 (FIGS. 1C-4), GP-1 (FIGS. 1C-5) and SP-1 (FIGS. 1C-6). […] KDs and standard deviations (shown) were determined by line-fitting of specific binding curves using BIAevaluation software (BIAcore) and are the products of three-to-ten separate experiments.
(§2) Surface plasmon resonance was performed on BIAcore 2000 and 3000 instruments at 25° C. using streptavidin-coated sensor chips (BIAcore) and HBS-P buffer (BIAcore; 10 mM HEPES (pH 7.4), 150 mM NaCl, and 0.005% polysorbate 20 (v/v)) adjusted to 1 mM each CaCl₂ and MgCl₂. The 19ek peptides and sPSGL, a fucosyltransferase-VII modified version of the entire dimeric extracellular domain of PSGL-1 (Croce et al., 1998), were biotinylated at Lys residues with Sulfo-NHS-LC-Biotin (Pierce). Following biotinylation, sPSGL was reacted with immobilized P-selectin in order to isolate functional material (Sako et al., 1995). […] Biotinylated reagents were coated onto sensor chips using HBS-P buffer.
On the technique in general: SPR reads the build-up and loss of mass on a sensor chip optically.

The target of assay [2] is T2, PSGL-1 19ek peptide sulfopeptide-1 …. In words: BIAcore SPR, equilibrium; solution-phase P-LE over immobilized biotinylated SP-1. On the procedure:
as §1, §2

Assay [3] concerns the target T3, PSGL-1 19ek peptide glycopeptide-1 …. In words: BIAcore SPR, equilibrium; solution-phase P-LE over immobilized biotinylated GP-1. How it is done:
as §1, §2

Assay [4] addresses T4, PSGL-1 19ek peptide SGP-1 (monosulfated …). In words: BIAcore SPR, equilibrium; solution-phase P-LE over immobilized biotinylated SGP-1. On the procedure:
as §1, §2

The target of assay [5] is B1. The assay can be described thus: BIAcore SPR, equilibrium; solution-phase P-LE over immobilized biotinylated SGP-3, 25 °C. How it is done:
as §1, §2

Square brackets hold non-standard residues; d marks the D form. Ends that are not written are not given here. sY = N[C@@H](Cc1ccc(OS(=O)(=O)O)cc1)C(=O)O; pGlu = O=C1CC[C@@H](C(=O)O)N1

As for B1, the Kd in assay [1] is 2.88 µM; in assay [2], roughly 113 µM; in assay [3], roughly 31.1 µM; in assay [4], 12.3 µM.
B2 had a dissociation constant Kd in assay [5] of 0.778 µM.
